# Data from patent publication US20220089710A1, “Method of Treating Signs and Symptoms of Osteoarthritis” (Pfizer Inc., priority 2019, published 2022).
# What was measured:
# NGF = NGF (Homo sapiens, UniProt P01138); conditions: cell culture models; cited from earlier work
# [1] = tested on: patients with osteoarthritis (OA) of the knee or hip; test: Example 3: adjudicated joint safety outcomes (patient-level and joint-level) and total joint replacements, Safety Population; assay type: in vivo, human; conditions: for rapidly progressive OA (types 1 and 2 combined): % of patients: any adjudicated RPOA
# Source text: Central radiology readers (Central Readers) may be board certified radiologists or have the international equivalent as musculoskeletal radiologists. The Central Readers may be governed by an imaging atlas and an imaging Charter which includes a specific description of the scope of their responsibilities. Central Readers may review the radiology images at Screening for assessment of eligibility (including determination of Kellgren-Lawrence Grade) and identification of exclusionary joint conditions such as rapidly progressive osteoarthritis, atrophic or hypotrophic osteoarthritis, subchondral insufficiency fractures (spontaneous osteonecrosis of the knee [SPONK]), primary osteonecrosis and pathological fractures. After start of treatment, the Central Reader may review radiology images for diagnosis of joint conditions that would warrant further evaluation by the Adjudication Committee such as possible or probable rapidly progressive osteoarthritis, subchondral insufficiency fractures (spontaneous osteonecrosis of the knee [SPONK]), primary osteonecrosis or pathological fracture.
# For subjects who are identified with a possible or probable joint event (i.e., rapidly progressive osteoarthritis, subchondral insufficiency fractures, spontaneous osteonecrosis of the knee (SPONK), primary osteonecrosis or pathological fracture) and subjects undergoing total joint replacement for any reason, all images and other source documentation may be provided to the blinded Adjudication Committee for review and adjudication of the event. The Adjudication Committee's assessment of the event may represent the final classification of the event.
# This study was designed with a total (post-randomization) duration of 80 weeks and consisted of three periods: Screening (up to a maximum of 37 days), Double-blind Treatment (56 weeks), and Safety Follow-up (24 weeks) (FIG. 1). The Screening Period included a Washout Period (lasting 2-30 days) if required, and an Initial Pain Assessment Period (7 days prior to Randomization/Baseline; minimum 3 days).
# [2] = 2.5 mg SC, observation time-adjusted analysis
# [3] = 2.5 mg SC, primary outcome per subject
# [4] = 5 mg SC, observation time-adjusted analysis
# [5] = 5 mg SC, primary outcome per subject
# [6] = tanezumab 2.5 mg (N = 1002), joint-level
# [7] = tanezumab 5 mg (N = 998), joint-level
# Chain of NGF (P01138 122-241): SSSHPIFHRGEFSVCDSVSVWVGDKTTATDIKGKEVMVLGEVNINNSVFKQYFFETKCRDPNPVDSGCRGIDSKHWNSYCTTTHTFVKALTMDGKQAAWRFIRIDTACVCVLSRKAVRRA
substance,measurement,setting,value
tanezumab: humanized immunoglobulin G Type 2 (IgG2) monoclonal antibody directed against human nerve growth factor (NGF); SEQ ID NOs: 9 or 11 and 10,blocking of the activity of NGF,NGF,blocks the activity of NGF effectively
same,Observation time-adjusted incidence of patients with ≥1 reported TJR,[1]; 2.5 mg SC,(51.8) /1000 patient-years
same,Pathological Fracture: observation time-adjusted rate,[1]; 2.5 mg SC,(0) /1000 patient-years
same,Patients analyzed by the Adjudication Committee: n,[1]; 2.5 mg SC,115
same,Primary Composite Joint Safety Endpoint: rate difference vs. NSAID,[1]; 2.5 mg SC,22.5
same,Primary Osteonecrosis: observation time-adjusted rate,[1]; 2.5 mg SC,(0) /1000 patient-years
same,Rapidly Progressive OA type 1: observation time-adjusted rate,[1]; 2.5 mg SC,(28.4) /1000 patient-years
same,Rapidly Progressive OA type 1: rate difference vs. NSAID,[1]; 2.5 mg SC,17.6
same,Rapidly Progressive OA type 2: rate difference vs. NSAID,[1]; 2.5 mg SC,1.9
same,Rapidly Progressive OA: rate difference vs. NSAID,[1]; 2.5 mg SC,19.6
same,Secondary Composite Joint Safety Endpoint: observation time-adjusted rate,[1]; 2.5 mg SC,(8.8) /1000 patient-years
same,Secondary Composite Joint Safety Endpoint: rate difference vs. NSAID,[1]; 2.5 mg SC,3.8
same,Subchondral Insufficiency Fracture: observation time-adjusted rate,[1]; 2.5 mg SC,(5.8) /1000 patient-years
same,Subchondral Insufficiency Fracture: rate difference vs. NSAID,[1]; 2.5 mg SC,1.9
same,TJR: rate difference vs. NSAID,[1]; 2.5 mg SC,27.2
same,patients with ≥1 reported TJR: number,[1]; 2.5 mg SC,53
same,rapidly progressive OA (types 1 and 2 combined): % of patients,[1]; 2.5 mg SC,3.2%
same,Pathological Fracture: n,[1]; [2],0
same,Primary Composite Joint Safety Endpoint: n,[1]; [2],38
same,Primary Osteonecrosis: n,[1]; [2],0
same,Rapidly Progressive OA type 1: n,[1]; [2],29
same,Rapidly Progressive OA: n,[1]; [2],32
same,Secondary Composite Joint Safety Endpoint: n,[1]; [2],9
same,Subchondral Insufficiency Fracture: n,[1]; [2],6
same,Normal Progression of OA: %,[1]; [3],(6.6%)
same,Normal Progression of OA: n,[1]; [3],66
same,Not enough information to determine Rapid vs. Normal Progression of OA: %,[1]; [3],(0.2%)
same,Not enough information to determine Rapid vs. Normal Progression of OA: n,[1]; [3],2
same,Other Joint Outcome: %,[1]; [3],(0.9%)
same,Other Joint Outcome: n,[1]; [3],9
same,Pathological Fracture: n,[1]; [3],0
same,Primary Composite Joint Safety Endpoint: %,[1]; [3],3.8% and (3.8%)
same,Primary Composite Joint Safety Endpoint: n,[1]; [3],38
same,Primary Osteonecrosis: n,[1]; [3],0
same,Rapidly Progressive OA type 1: %,[1]; [3],(2.9%)
same,Rapidly Progressive OA type 1: n,[1]; [3],29
same,Rapidly Progressive OA type 2: %,[1]; [3],(0.3%)
same,Rapidly Progressive OA: %,[1]; [3],(3.2%)
same,Rapidly Progressive OA: n,[1]; [3],32
same,Secondary Composite Joint Safety Endpoint: %,[1]; [3],(0.9%)
same,Secondary Composite Joint Safety Endpoint: n,[1]; [3],9
same,Subchondral Insufficiency Fracture: %,[1]; [3],(0.6%)
same,Subchondral Insufficiency Fracture: n,[1]; [3],6
same,Observation time-adjusted incidence of patients with ≥1 reported TJR,[1]; 5 mg SC,(78.7) /1000 patient-years
same,Pathological Fracture: observation time-adjusted rate,[1]; 5 mg SC,(0) /1000 patient-years
same,Patients analyzed by the Adjudication Committee: n,[1]; 5 mg SC,171
same,Primary Composite Joint Safety Endpoint: rate difference vs. NSAID,[1]; 5 mg SC,56.7
same,Primary Osteonecrosis: observation time-adjusted rate,[1]; 5 mg SC,(1.0) /1000 patient-years
same,Rapidly Progressive OA type 1: observation time-adjusted rate,[1]; 5 mg SC,(49.1) /1000 patient-years
same,Rapidly Progressive OA type 1: rate difference vs. NSAID,[1]; 5 mg SC,38.2
same,Rapidly Progressive OA type 2: rate difference vs. NSAID,[1]; 5 mg SC,12.9
same,Rapidly Progressive OA: rate difference vs. NSAID,[1]; 5 mg SC,51.5
same,Secondary Composite Joint Safety Endpoint: observation time-adjusted rate,[1]; 5 mg SC,(21.8) /1000 patient-years
same,Secondary Composite Joint Safety Endpoint: rate difference vs. NSAID,[1]; 5 mg SC,16.9
same,Subchondral Insufficiency Fracture: observation time-adjusted rate,[1]; 5 mg SC,(6.9) /1000 patient-years
same,Subchondral Insufficiency Fracture: rate difference vs. NSAID,[1]; 5 mg SC,3.0
same,TJR: rate difference vs. NSAID,[1]; 5 mg SC,54.0
same,patients with ≥1 reported TJR: number,[1]; 5 mg SC,79
same,rapidly progressive OA (types 1 and 2 combined): % of patients,[1]; 5 mg SC,6.3%
same,Pathological Fracture: n,[1]; [4],0
same,Primary Composite Joint Safety Endpoint: n,[1]; [4],71
same,Primary Osteonecrosis: n,[1]; [4],1
same,Rapidly Progressive OA type 1: n,[1]; [4],49
same,Rapidly Progressive OA type 2: n,[1]; [4],14
same,Rapidly Progressive OA: n,[1]; [4],63
same,Secondary Composite Joint Safety Endpoint: n,[1]; [4],22
same,Subchondral Insufficiency Fracture: n,[1]; [4],7
same,Normal Progression of OA: %,[1]; [5],(7.9%)
same,Normal Progression of OA: n,[1]; [5],79
same,Not enough information to determine Rapid vs. Normal Progression of OA: n,[1]; [5],0
same,Other Joint Outcome: %,[1]; [5],(2.1%)
same,Other Joint Outcome: n,[1]; [5],21
same,Pathological Fracture: n,[1]; [5],0
same,Primary Composite Joint Safety Endpoint: %,[1]; [5],7.1% and (7.1%)
same,Primary Composite Joint Safety Endpoint: n,[1]; [5],71
same,Primary Osteonecrosis: %,[1]; [5],(0.1%)
same,Primary Osteonecrosis: n,[1]; [5],1
same,Rapidly Progressive OA type 1: %,[1]; [5],(4.9%)
same,Rapidly Progressive OA type 1: n,[1]; [5],49
same,Rapidly Progressive OA type 2: %,[1]; [5],1.4% and (1.4%)
same,Rapidly Progressive OA type 2: n,[1]; [5],14
same,Rapidly Progressive OA: %,[1]; [5],(6.3%)
same,Rapidly Progressive OA: n,[1]; [5],63
same,Secondary Composite Joint Safety Endpoint: %,[1]; [5],(2.2%)
same,Secondary Composite Joint Safety Endpoint: n,[1]; [5],22
same,Subchondral Insufficiency Fracture: %,[1]; [5],(0.7%)
same,Subchondral Insufficiency Fracture: n,[1]; [5],7
same,"Rapidly Progressive OA type 1: Associated with TJR No, %",[1]; [6],(90.0%)
same,"Rapidly Progressive OA type 1: Associated with TJR Yes, %",[1]; [6],(10.0%)
same,"Rapidly Progressive OA type 1: Baseline Kellgren-Lawrence Grade of Affected Joint 0, %",[1]; [6],(3.3%)
same,"Rapidly Progressive OA type 1: Baseline Kellgren-Lawrence Grade of Affected Joint 1, %",[1]; [6],(20.0%)
same,"Rapidly Progressive OA type 1: Baseline Kellgren-Lawrence Grade of Affected Joint 2, %",[1]; [6],(36.7%)
same,"Rapidly Progressive OA type 1: Baseline Kellgren-Lawrence Grade of Affected Joint 3, %",[1]; [6],(40.0%)
same,"Rapidly Progressive OA type 1: Joint affected Hip, %",[1]; [6],(13.3%)
same,"Rapidly Progressive OA type 1: Joint affected Knee, %",[1]; [6],(86.7%)
same,"Rapidly Progressive OA type 2: Associated with TJR No, %",[1]; [6],(66.7%)
same,"Rapidly Progressive OA type 2: Associated with TJR Yes, %",[1]; [6],(33.3%)
same,"Rapidly Progressive OA type 2: Baseline Kellgren-Lawrence Grade of Affected Joint 3, %",[1]; [6],(33.3%)
same,"Rapidly Progressive OA type 2: Baseline Kellgren-Lawrence Grade of Affected Joint 4, %",[1]; [6],(66.7%)
same,"Rapidly Progressive OA type 2: Joint affected Hip, %",[1]; [6],(33.3%)
same,"Rapidly Progressive OA type 2: Joint affected Knee, %",[1]; [6],(66.7%)
same,"Subchondral Insufficiency Fracture: Associated with TJR No, %",[1]; [6],(100.0%)
same,"Subchondral Insufficiency Fracture: Baseline Kellgren-Lawrence Grade of Affected Joint 2, %",[1]; [6],(33.3%)
same,"Subchondral Insufficiency Fracture: Baseline Kellgren-Lawrence Grade of Affected Joint 3, %",[1]; [6],(66.7%)
same,"Subchondral Insufficiency Fracture: Joint affected Hip, %",[1]; [6],(33.3%)
same,"Subchondral Insufficiency Fracture: Joint affected Knee, %",[1]; [6],(66.7%)
same,"Rapidly Progressive OA type 1: Associated with TJR No, %",[1]; [7],(84.9%)
same,"Rapidly Progressive OA type 1: Associated with TJR Yes, %",[1]; [7],(15.1%)
same,"Rapidly Progressive OA type 1: Baseline Kellgren-Lawrence Grade of Affected Joint 0, %",[1]; [7],(3.8%)
same,"Rapidly Progressive OA type 1: Baseline Kellgren-Lawrence Grade of Affected Joint 1, %",[1]; [7],(20.8%)
same,"Rapidly Progressive OA type 1: Baseline Kellgren-Lawrence Grade of Affected Joint 2, %",[1]; [7],(43.4%)
same,"Rapidly Progressive OA type 1: Baseline Kellgren-Lawrence Grade of Affected Joint 3, %",[1]; [7],(30.2%)
same,"Rapidly Progressive OA type 1: Baseline Kellgren-Lawrence Grade of Affected Joint Not Available, %",[1]; [7],(1.9%)
same,"Rapidly Progressive OA type 1: Joint affected Hip, %",[1]; [7],(15.1%)
same,"Rapidly Progressive OA type 1: Joint affected Knee, %",[1]; [7],(83.0%)
same,"Rapidly Progressive OA type 1: Joint affected Shoulder, %",[1]; [7],(1.9%)
same,"Rapidly Progressive OA type 2: Associated with TJR No, %",[1]; [7],(43.8%)
same,"Rapidly Progressive OA type 2: Associated with TJR Yes, %",[1]; [7],(56.3%)
same,"Rapidly Progressive OA type 2: Baseline Kellgren-Lawrence Grade of Affected Joint 0, %",[1]; [7],(12.5%)
same,"Rapidly Progressive OA type 2: Baseline Kellgren-Lawrence Grade of Affected Joint 1, %",[1]; [7],(6.3%)
same,"Rapidly Progressive OA type 2: Baseline Kellgren-Lawrence Grade of Affected Joint 2, %",[1]; [7],(6.3%)
same,"Rapidly Progressive OA type 2: Baseline Kellgren-Lawrence Grade of Affected Joint 3, %",[1]; [7],(31.3%)
same,"Rapidly Progressive OA type 2: Baseline Kellgren-Lawrence Grade of Affected Joint 4, %",[1]; [7],(37.5%)
same,"Rapidly Progressive OA type 2: Baseline Kellgren-Lawrence Grade of Affected Joint Not Available, %",[1]; [7],(6.3%)
same,"Rapidly Progressive OA type 2: Joint affected Hip, %",[1]; [7],(43.8%)
same,"Rapidly Progressive OA type 2: Joint affected Knee, %",[1]; [7],(50.0%)
same,"Rapidly Progressive OA type 2: Joint affected Shoulder, %",[1]; [7],(6.3%)
same,"Subchondral Insufficiency Fracture: Associated with TJR No, %",[1]; [7],(57.1%)
same,"Subchondral Insufficiency Fracture: Associated with TJR Yes, %",[1]; [7],(42.9%)
same,"Subchondral Insufficiency Fracture: Baseline Kellgren-Lawrence Grade of Affected Joint 0, %",[1]; [7],(14.3%)
same,"Subchondral Insufficiency Fracture: Baseline Kellgren-Lawrence Grade of Affected Joint 1, %",[1]; [7],(14.3%)
same,"Subchondral Insufficiency Fracture: Baseline Kellgren-Lawrence Grade of Affected Joint 2, %",[1]; [7],(57.1%)
same,"Subchondral Insufficiency Fracture: Baseline Kellgren-Lawrence Grade of Affected Joint 3, %",[1]; [7],(14.3%)
same,"Subchondral Insufficiency Fracture: Joint affected Hip, %",[1]; [7],(14.3%)
same,"Subchondral Insufficiency Fracture: Joint affected Knee, %",[1]; [7],(85.7%)
